Here are results for three substances from US20060105444A1, “O-fucosyltransferase” (Genentech, Inc., priority 1997, published 2006).

The target of this assay is T1, purified O-fucosyltransferase (Cricetulus griseus, UniProt P83337).
T1 construct: endogenous in cells; host or cells: CHO cell paste (enzyme); E. coli periplasm (EGF substrates)
Nature of the assay: Acceptor substrate specificity: fucosyltransferase assay with Factor IX EGF domain mutants. Format: biochemical, CHO cells (Chinese hamster ovary). The note with it: for Fucose (cpm): human Factor IX EGF domain or mutant as acceptor substrate, 14C-fucose incorporated; for acceptor substrate for the O-fucosyltransferase (in words): recombinant Factor IX EGF domains, assay counts and LC/MS of fucosylation product. As to the method:
A reaction volume of 50 μl contained the following ingredient: 0.1 M imidazole-HCl, pH 7.0; 50 mM MnCl2; 0.1 mM GDP-^14C-Fucose (4000-8000 cpm/nmol), 20 μM recombinant human Factor VII EGF-1 domain and about 0.01-0.1 milliunit of enzyme activity. The mixture was incubated at 37° C. for 10-20 minutes. The reaction was stopped by placing the mixture on ice, then diluting with 950 μl of 0.25 M EDTA, pH 8.0. Separation of incorporated fucose from GDP-fucose, fucose-phosphate and free fucose was carried out by passing the solution through a C18 cartridge (Alltech, Extract Clean, C18, 200 mg). The cartridge was washed with 5 ml of H2O, and the product was then eluted with 3 ml of 80% acetonitrile containing 0.052% TFA. The eluant was mixed with 10 ml Aquasol II (NEN/Du Pont) and counted using a liquid scintillation counter.
As described previously, all the O-fucosylation on EGF domains occur within the putative consensus sequence CXXGGSC (SEQ ID NO: 1) or alternatively CXXGGTC (SEQ ID NO: 21). […] Three mutants were constructed using alanine to replace either of the two or both glycine residues and tested as acceptor substrate for the purified O-fucosyltransferase. Assays using the four recombinant EGF domains all gave positive counts. It appeared that the two glycine residues were not absolutely required for activity.
In order to determine if all the different forms of the mutants served as substrate for the O-fucosyltransferase, reverse-phase HPLC online with electrospray mass spectrometry was used to analyze the product of the fucosylation reaction. Shown in FIG. 8 is the experiment using the mutant ala-ala. Analysis of the other tested mutants gave similar results. […] The enzyme O-fucosyltransferase required its substrate in order to have the proper three dimensional structure in order to function properly.

For “EGF (wild type): Recombinant human Factor IX EGF domain, wild type, sequence -CLNGGSC- (SEQ ID NO: 20) (KRYNSGKLEEFVQGNLERECMEEKCSFEEAREVFENTERTTEFHHHHHHGSA)”, the “Fucose (cpm)” value was found to be 12062 cpm and the “acceptor substrate for the O-fucosyltransferase (in words)” value was “better substrate than the mutants”.
For “EGF.AA: Recombinant human Factor IX EGF domain mutant, sequence -CLNAASC- (SEQ ID NO: 17), both glycines replaced by alanine”, in that order: 1818 cpm and “only one of the four differently folded species served as an acceptor substrate”.
As for “EGF.AG: Recombinant human Factor IX EGF domain mutant, sequence -CLNAGSC- (SEQ ID NO: 18) (KRYNSGKLEEFVQGNLERECMEEKCSFEEAREVFENTERTTEFHHHHHHGSA)”, the “Fucose (cpm)” value is on record as 4585 cpm.
